According to EP4803151A2 (Lepu Biopharma Co., Ltd., dated 2026):

T1: human DLL3 endogenously expressed on SCLC tumor cell lines SHP77 and NCI-H82 (human, UniProt Q9NYJ7 27-618)
T1 construct: whole, on cells; also called human DLL3 expressed on tumor cells
T1 sequence (looked up): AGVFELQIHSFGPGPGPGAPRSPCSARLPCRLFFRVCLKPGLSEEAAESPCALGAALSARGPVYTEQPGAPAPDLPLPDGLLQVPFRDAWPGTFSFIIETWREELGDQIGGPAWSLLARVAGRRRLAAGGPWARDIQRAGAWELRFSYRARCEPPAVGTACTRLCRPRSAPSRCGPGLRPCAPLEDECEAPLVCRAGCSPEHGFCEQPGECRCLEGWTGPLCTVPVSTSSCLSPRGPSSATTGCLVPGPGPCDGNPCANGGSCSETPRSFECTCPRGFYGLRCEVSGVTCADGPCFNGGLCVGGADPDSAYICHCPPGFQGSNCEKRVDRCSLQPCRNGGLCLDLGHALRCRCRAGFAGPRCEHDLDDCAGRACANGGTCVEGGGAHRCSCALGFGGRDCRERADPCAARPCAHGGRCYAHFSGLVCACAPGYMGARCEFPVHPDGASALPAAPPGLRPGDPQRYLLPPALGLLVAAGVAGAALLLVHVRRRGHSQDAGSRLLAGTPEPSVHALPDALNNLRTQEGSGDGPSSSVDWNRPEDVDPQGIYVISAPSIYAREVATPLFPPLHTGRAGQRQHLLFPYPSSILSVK

T2: human full length DLL1 expressed on CHO-K1 cells (human, UniProt O00548 18-723)
T2 construct: whole, on cells; also called CHO-K1-hDLL1
T2 sequence (looked up): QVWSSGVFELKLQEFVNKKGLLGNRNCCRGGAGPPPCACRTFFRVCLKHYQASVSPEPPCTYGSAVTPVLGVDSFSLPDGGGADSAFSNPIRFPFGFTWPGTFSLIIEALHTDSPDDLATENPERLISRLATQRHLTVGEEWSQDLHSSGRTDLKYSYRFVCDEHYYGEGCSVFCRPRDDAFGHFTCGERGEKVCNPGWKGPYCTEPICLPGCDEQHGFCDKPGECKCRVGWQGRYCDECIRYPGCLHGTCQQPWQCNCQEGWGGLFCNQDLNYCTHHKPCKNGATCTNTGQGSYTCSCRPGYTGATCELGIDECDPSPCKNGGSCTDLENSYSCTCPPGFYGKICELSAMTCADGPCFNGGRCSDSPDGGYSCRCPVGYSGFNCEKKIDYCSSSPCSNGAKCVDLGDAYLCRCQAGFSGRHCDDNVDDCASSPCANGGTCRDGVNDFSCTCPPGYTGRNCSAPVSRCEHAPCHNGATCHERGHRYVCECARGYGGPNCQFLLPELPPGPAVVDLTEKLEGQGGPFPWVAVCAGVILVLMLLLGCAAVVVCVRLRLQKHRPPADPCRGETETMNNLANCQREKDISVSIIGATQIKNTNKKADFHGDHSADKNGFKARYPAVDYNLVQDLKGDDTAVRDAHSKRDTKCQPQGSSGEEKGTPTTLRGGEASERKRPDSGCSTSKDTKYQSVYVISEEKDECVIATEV

T3: human DLL1 his tag fusion protein (Sino Biological, Cat. No. 11635-H08H) (human, UniProt O00548 18-540)
T3 construct: Bought protein; also called hDLL1-his; hDLL1 protein; not shown: his tag
T3 sequence (looked up): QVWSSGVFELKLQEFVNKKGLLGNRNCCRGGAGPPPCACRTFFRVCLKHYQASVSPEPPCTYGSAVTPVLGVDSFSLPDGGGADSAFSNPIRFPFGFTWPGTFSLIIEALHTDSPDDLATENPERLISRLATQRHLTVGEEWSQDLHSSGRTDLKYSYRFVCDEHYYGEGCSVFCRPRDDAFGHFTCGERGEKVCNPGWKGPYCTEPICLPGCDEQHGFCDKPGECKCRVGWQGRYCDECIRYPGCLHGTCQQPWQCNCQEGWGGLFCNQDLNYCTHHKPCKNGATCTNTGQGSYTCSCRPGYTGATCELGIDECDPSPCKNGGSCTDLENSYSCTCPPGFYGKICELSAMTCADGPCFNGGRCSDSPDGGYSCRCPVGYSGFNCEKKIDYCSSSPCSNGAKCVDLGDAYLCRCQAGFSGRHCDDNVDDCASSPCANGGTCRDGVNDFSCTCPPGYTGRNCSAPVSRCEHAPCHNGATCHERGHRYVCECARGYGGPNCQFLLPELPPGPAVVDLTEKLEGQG

T4: mouse DLL3 his tag protein (KACTUS, Cat. No. DLL-MM103) (mouse, UniProt O88516 33-490, limits assumed)
T4 construct: Bought protein; also called mDLL3-his; mouse DLL3 protein; not shown: his tag
T4 sequence (looked up): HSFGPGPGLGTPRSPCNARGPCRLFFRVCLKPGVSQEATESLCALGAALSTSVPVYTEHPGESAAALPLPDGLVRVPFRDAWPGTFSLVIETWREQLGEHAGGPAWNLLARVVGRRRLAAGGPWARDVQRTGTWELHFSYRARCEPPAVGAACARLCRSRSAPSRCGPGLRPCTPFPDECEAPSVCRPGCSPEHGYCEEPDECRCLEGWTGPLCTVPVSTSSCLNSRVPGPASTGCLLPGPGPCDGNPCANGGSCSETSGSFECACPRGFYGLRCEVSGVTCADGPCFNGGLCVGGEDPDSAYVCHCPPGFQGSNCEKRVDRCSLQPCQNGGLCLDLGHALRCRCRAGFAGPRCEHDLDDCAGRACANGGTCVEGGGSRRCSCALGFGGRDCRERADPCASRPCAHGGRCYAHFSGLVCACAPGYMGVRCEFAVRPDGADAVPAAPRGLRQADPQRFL

T5: ECD of human DLL3 over-expressed on HEK293 cells (human, UniProt Q9NYJ7 27-492)
T5 construct: extracellular domain; also called HEK293-hDLL3; human DLL3 expressed on HEK293 cells
T5 sequence (looked up): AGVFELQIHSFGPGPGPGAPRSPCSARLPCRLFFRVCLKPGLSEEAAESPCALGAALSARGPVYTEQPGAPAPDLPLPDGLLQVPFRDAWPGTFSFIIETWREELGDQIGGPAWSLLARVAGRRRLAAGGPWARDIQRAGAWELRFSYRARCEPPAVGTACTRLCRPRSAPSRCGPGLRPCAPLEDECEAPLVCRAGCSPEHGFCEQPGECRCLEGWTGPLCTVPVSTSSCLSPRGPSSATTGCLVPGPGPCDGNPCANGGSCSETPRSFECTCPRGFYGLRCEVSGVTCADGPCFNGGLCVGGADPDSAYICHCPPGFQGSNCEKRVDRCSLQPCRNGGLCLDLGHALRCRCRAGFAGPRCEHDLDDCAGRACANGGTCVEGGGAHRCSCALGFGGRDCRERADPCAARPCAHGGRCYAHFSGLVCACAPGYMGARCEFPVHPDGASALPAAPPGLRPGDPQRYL

T6: ECD of human DLL3 protein fused with his tag (Acro Bio, Cat. No. DL3-H52H4) (human, UniProt Q9NYJ7 27-492)
T6 construct: range 27-492; Bought protein; also called hDLL3-his; human DLL3-his protein; not shown: his tag
T6 sequence (looked up): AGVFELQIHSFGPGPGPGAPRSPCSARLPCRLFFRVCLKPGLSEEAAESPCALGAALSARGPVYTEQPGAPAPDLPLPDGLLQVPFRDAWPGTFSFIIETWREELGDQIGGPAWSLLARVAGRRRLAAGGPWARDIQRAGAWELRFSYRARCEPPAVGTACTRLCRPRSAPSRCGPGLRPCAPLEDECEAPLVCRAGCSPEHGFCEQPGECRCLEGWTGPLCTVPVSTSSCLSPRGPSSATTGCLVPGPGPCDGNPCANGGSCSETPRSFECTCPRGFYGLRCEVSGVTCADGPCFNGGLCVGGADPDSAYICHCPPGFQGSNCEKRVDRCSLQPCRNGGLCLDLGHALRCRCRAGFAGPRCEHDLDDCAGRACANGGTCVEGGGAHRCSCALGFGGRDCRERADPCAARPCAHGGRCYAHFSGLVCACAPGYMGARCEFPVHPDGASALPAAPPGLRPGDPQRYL


What was measured:
[1] = target: T1, human DLL3 endogenously expressed on …; test: flow cytometry on SHP77 and NCI-H82 cells
[2] = target: T2, human full length DLL1 expressed on …; test: flow cytometry on CHO-K1-hDLL1 cells
[3] = target: T3, human DLL1 his tag fusion protein (Sino …); test: ELISA, hDLL1-his coated at 1 ug/mL
[4] = target: T4, mouse DLL3 his tag protein (KACTUS, …); test: ELISA, mDLL3-his coated at 1 ug/mL
[5] = target: T5, ECD of human DLL3 over-expressed on …; test: flow cytometry on HEK293-hDLL3 cells
[6] = target: T7, human DLL4 his tag fusion protein (Sino Biological, Cat. No. 10171-H08H) (human, UniProt Q9NR61 27-524); test: ELISA, hDLL4-his coated at 1 ug/mL
T7 construct: Bought protein; also called hDLL4-his; hDLL4 protein; not shown: his tag

[7] = target: T6, ECD of human DLL3 protein fused with …; test: SPR, Biacore 8K, antibody captured on Protein A chip, single dose of human DLL3-his
[8] = target: T6, ECD of human DLL3 protein fused with …; test: ELISA, hDLL3-his coated at 1 ug/mL

T7 sequence (Q9NR61 27-524 limits assumed): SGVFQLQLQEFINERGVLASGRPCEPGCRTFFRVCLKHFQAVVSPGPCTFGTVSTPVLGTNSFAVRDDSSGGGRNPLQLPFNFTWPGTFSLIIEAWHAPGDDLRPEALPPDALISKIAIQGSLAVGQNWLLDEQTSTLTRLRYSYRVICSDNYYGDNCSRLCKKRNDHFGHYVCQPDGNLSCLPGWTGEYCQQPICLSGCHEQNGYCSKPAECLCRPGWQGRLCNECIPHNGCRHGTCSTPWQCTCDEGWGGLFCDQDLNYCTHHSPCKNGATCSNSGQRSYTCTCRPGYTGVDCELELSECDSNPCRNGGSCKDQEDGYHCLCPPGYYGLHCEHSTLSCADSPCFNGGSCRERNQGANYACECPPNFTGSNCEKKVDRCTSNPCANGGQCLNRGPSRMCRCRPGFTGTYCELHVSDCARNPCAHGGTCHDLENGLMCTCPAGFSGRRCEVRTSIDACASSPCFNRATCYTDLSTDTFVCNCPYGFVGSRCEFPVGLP

| binding result [1] | binding result [3] | binding result [4] | binding result [5] | binding result [6] | binding result [7] | binding result [8] | Binder | binding result [2] |
| --- | --- | --- | --- | --- | --- | --- | --- | --- |
| binds | binds | binds | binds | binds | binds |  | 362H3D3-hIgG1 chimeric antibody (antibody, V domains shown) VH: EVQLQQSGPELLKPGASVKISCKASGYTFTDYTMHWVKQSHGRSLEWIGGIHPNYGGTSYNEKFKDKATLTVDKSSSTAYMEFRSLTSEDSAVYYCARWGYYGGSYWYFDVWGTGTTVTVSS VL: DIQMTQSPASLSVSVGETVTITCRASENIYSNLAWYQQKQGKSPQLLVYAATNLADGVPSRFSGSGSGTQYSLKINSLQSEDFGSYYCQHFWGTPYTFGGGTKLEIKR | binds |
| binds | no binding (tested: up to 100 nM) | binds | binds | no binding (tested: up to 100 nM) | binds |  | 310P3C5-hIgG1 chimeric antibody (antibody, V domains shown) VH: EVQLQQSGPELVKPGASVKISCKASGYTFTDFYMNWVKQTHGKSLEWIGDANPNNGGTTHNPRFKGQATLTVDKSSNTAYMELRSLTSEDSAVYYCARGGLPGDFDYWGQGTTLTVSS VL: DIQMTQSSSSFSVSLGDRVTITCKASEDIYNRLAWYQQKPGNAPRLLISGVTSLETGVPSRFSGSGSGKDYTLSITSLQTEDVATYYCQQYWSFPWTFGGGTKLEIKR | no binding (tested: highest dose level 100 nM) |
| binds | no binding (tested: up to 100 nM) | binds | binds | no binding (tested: up to 100 nM) |  | binds | 36B7F3-hIgG1 chimeric antibody (antibody, V domains shown) VH: QVQLQQSGPELVKPGASVKISCRASGYTFTDHHLNWVKQRPGQGLEWIGWIFPGSGSDYYNERFKDKATLTVDKSSSTAYMLLSSLTSEDSAVYFCERWDYWGQGTTLTVSS VL: QIVLTQSPTIMSASPGEKVTMTCSASSSISYMHWYQQKPGTSPKRWIYDTSTLASGVPARFSGGGSGTSYSLTISSMEAEDAATYYCHQRSSYPLTFGAGTKLELKR | no binding (tested: highest dose level 100 nM) |
| binds | no binding (tested: up to 100 nM) | binds | binds | no binding (tested: up to 100 nM) | binds |  | 148C3A7-hIgG1 chimeric antibody (antibody, V domains shown) VH: EVQLQQSGPELIKPGTSVKMSCKASGYTFTTYLMHWVKQKPGQGLEWIGYINPYNDVTEYHEKFKDKATLTSDKSSSTAYMELSSLTSEDSAVYYCARLGGYGPGWYLDVWGAGTTVTVSS VL: DIQMTQSPASLSASVGETVTITCRASGSIHNYLAWYLHKQGKSPQLLVYNAKTLADGVPSRFSGSGSGTQYSLKINSLQPEDFGSYYCHHFWSTPWTFGGGTKLEIKR | no binding (tested: highest dose level 100 nM) |
|  | no binding (tested: up to 100 nM) | binds | binds | no binding (tested: up to 100 nM) | binds |  | 129H2B9-hIgG1 chimeric antibody (antibody, V domains shown) VH: EVNLEESGGGLVQPGGSMKLSCVVSGFTFSNYWMSWVRQSPEKGLEWVAEIRLKSDNYATHYAESVKGKFTISRDDSKSRLYLQMNSLRPEDTGIYYCTSNRFAYWGQGTLVTVSA VL: NIVMTQSPKSVSMSVGERVTLSCKASENVGTYVYWYQQKPEQSPKMMIYGASNRYTGVPDRFTGSGSATDFTLTIRSVQAEDLADYHCGQSYSYPFTFGSGTKLEIKR | no binding (tested: highest dose level 100 nM) |
| binds | no binding (tested: up to 100 nM) | binds | binds | no binding (tested: up to 100 nM) |  | binds | 9E8D8-hIgG1 chimeric antibody (antibody, V domains shown) VH: QVQLQQSGAELVRPGASVKLSCKALGYTFTDSEIHWVKQTPVHGLEWIGAIHPRNGGTAYNQKFRGKATLSADRSSNTAYMELSSLTSEDSAVYYCSRGYFLDYWGQGTSVTVSS VL: not shown | no binding (tested: highest dose level 100 nM) |
